What was measured:
[1] = biological target: IL-1 receptor (IL-1R) (rat) (UniProt Q02955); experiment: co-immunoprecipitation, adult control rats, hippocampal synaptosomes, mean±SEM
[2] = biological target: IL-1 receptor (IL-1R) (rat) (UniProt Q02955); experiment: co-immunoprecipitation, adult ENV-expressing rats, hippocampal synaptosomes, mean±SEM

UniProt Q02955, sequence (Q02955 20-576): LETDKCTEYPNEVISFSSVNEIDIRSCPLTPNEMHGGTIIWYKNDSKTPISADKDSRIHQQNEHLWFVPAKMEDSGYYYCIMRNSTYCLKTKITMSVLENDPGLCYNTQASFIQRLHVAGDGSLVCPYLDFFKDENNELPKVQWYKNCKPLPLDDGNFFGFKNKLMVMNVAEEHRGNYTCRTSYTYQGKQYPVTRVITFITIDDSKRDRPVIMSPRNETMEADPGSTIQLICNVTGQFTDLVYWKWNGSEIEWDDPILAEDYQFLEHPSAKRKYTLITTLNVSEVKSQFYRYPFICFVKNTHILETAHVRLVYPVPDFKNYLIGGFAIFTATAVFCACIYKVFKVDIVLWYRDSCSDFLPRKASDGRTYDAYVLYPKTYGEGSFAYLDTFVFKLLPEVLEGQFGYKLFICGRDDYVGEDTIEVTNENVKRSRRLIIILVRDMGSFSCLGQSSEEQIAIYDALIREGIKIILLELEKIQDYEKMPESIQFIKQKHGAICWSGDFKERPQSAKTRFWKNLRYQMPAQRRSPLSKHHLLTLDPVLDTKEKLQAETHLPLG

Substance | co-IP GluN2A/IL-1R (normalised to control animals) [1] | co-IP GluN2A/IL-1R (normalised to control animals) [2] | co-IP GluN2B/IL-1R (normalised to control animals) [1] | co-IP GluN2B/IL-1R (normalised to control animals) [2]
GluN2A-NMDAR (GluN2A-containing NMDA receptor) (from UniProt Q00959 23-1464) | 1 | 1.04 | – | –
GluN2B-NMDAR (GluN2B-containing NMDA receptor) (from UniProt Q00960 27-1482) | – | – | 1 | 0.95

Reference: patent US20240301040A1
